Source: patent publication US20180171001A1

Key:
Assay in all cases: cell-based or functional assay
[1] = target: Env of HIV-1 strain PVO.4 (HIV-1)
[2] = target: Env of HIV-1 strain ZM109F.PB4 (HIV-1)
[3] = target: Env of HIV-1 strain REJO4541.67 (HIV-1)
[4] = target: Env of HIV-1 strain 251-18 (HIV-1)
[5] = target: Env of HIV-1 strain 231965.c1 (HIV-1)
[6] = target: Env of HIV-1 strain 3365.v2.c20 (HIV-1)
[7] = target: Env of HIV-1 strain H086.8 (HIV-1)
[8] = target: Env of MuLV
[9] = target: Env of HIV-1 strain 3415.v1.c1 (HIV-1)
[10] = target: Env of HIV-1 strain 250-4 (HIV-1)
[11] = target: Env of HIV-1 strain ZM53M.PB12 (HIV-1)
[12] = target: Env of HIV-1 strain R1166.c1 (HIV-1)
[13] = target: Env of HIV-1 strain YU2.DG (HIV-1)
[14] = target: Env of HIV-1 strain Du172.17 (HIV-1)
[15] = target: Env of HIV-1 strain X1254_c3 (HIV-1)
[16] = target: Env of HIV-1 strain 3016.v5.c45 (HIV-1)

B1: γ46κ18 (antibody, V domains shown)
VH: QIHLVQSGTEVKKPGSSVTVSCKAYGVNTFGLYAVNWVRQAPGQGLEYIGQIWRWKSSASHHFRGRVLISAVDLTGSSPPISSLEIKNVTSDDTAVYFCTTTSTYDKWSGLHHDGVVAFSSWGQGTLISVSA
VL: DIQMTQSPSTLSASVGDTVRISCRASQSITGGWLAWYHQRPGKAPRLLIYRGSRLLGGVPSRFSGSAAGADFTLTIANLQAEDFGTFYCQQYDTYPGTFGQGTKVEVKR
neutralization IC50 [1]: 2.1 µg/mL
neutralization IC50 [2]: > 15 µg/mL
neutralization IC50 [3]: > 15 µg/mL
neutralization IC50 [4]: > 15 µg/mL
neutralization IC50 [5]: 4.16 µg/mL
neutralization IC50 [6]: > 15 µg/mL
neutralization IC50 [7]: > 15 µg/mL
neutralization IC50 [8]: > 15 µg/mL
neutralization IC50 [9]: > 15 µg/mL
neutralization IC50 [10]: > 15 µg/mL
neutralization IC50 [11]: > 15 µg/mL
neutralization IC50 [12]: 4.1 µg/mL
neutralization IC50 [13]: 2.36 µg/mL
neutralization IC50 [14]: > 15 µg/mL
neutralization IC50 [15]: 4.2 µg/mL
neutralization IC50 [16]: 2.99 µg/mL

B2: γ44κ61 (antibody, V domains shown)
VH: QIHLVQSGTEVKKPGSSVTVSCKAYEVNTFGLYAVNWVRQAPGQSLEYIGQIWRWKSSASHHFRGRVLISAVDLTGSSPPISSLEIKNVTSDDTAVYFCTTTSTHDKWSGLHHDGVMAFSSWGQGTLISVSA
VL: DIQMTQSPSTLSASIGDTVRISCRASQSITGNWVAWYHQRPGKAPRLLIYRGAALLGGVPSRFSGSAAGTDFTLTIGNLQAEDFGTFYCQQYDTYPGTFGQGTKVEVKR
neutralization IC50 [1]: > 15 µg/mL
neutralization IC50 [2]: > 15 µg/mL
neutralization IC50 [3]: > 15 µg/mL
neutralization IC50 [4]: > 15 µg/mL
neutralization IC50 [5]: > 15 µg/mL
neutralization IC50 [6]: > 15 µg/mL
neutralization IC50 [7]: > 15 µg/mL
neutralization IC50 [8]: > 15 µg/mL
neutralization IC50 [9]: > 15 µg/mL
neutralization IC50 [10]: > 15 µg/mL
neutralization IC50 [11]: > 15 µg/mL
neutralization IC50 [12]: > 15 µg/mL
neutralization IC50 [13]: > 15 µg/mL
neutralization IC50 [14]: > 15 µg/mL
neutralization IC50 [15]: > 15 µg/mL
neutralization IC50 [16]: > 15 µg/mL

B3: γ46κ61 (antibody, V domains shown)
VH: QIHLVQSGTEVKKPGSSVTVSCKAYGVNTFGLYAVNWVRQAPGQGLEYIGQIWRWKSSASHHFRGRVLISAVDLTGSSPPISSLEIKNVTSDDTAVYFCTTTSTYDKWSGLHHDGVVAFSSWGQGTLISVSA
VL: DIQMTQSPSTLSASIGDTVRISCRASQSITGNWVAWYHQRPGKAPRLLIYRGAALLGGVPSRFSGSAAGTDFTLTIGNLQAEDFGTFYCQQYDTYPGTFGQGTKVEVKR
neutralization IC50 [1]: 0.244 µg/mL
neutralization IC50 [2]: > 15 µg/mL
neutralization IC50 [3]: 0.378 µg/mL
neutralization IC50 [4]: 1.84 µg/mL
neutralization IC50 [5]: 1.58 µg/mL
neutralization IC50 [6]: > 15 µg/mL
neutralization IC50 [7]: 0.584 µg/mL
neutralization IC50 [8]: > 15 µg/mL
neutralization IC50 [9]: > 15 µg/mL
neutralization IC50 [10]: > 15 µg/mL
neutralization IC50 [11]: 27.5 µg/mL
neutralization IC50 [12]: 2.58 µg/mL
neutralization IC50 [13]: 0.918 µg/mL
neutralization IC50 [14]: 26.1 µg/mL
neutralization IC50 [15]: 4.46 µg/mL
neutralization IC50 [16]: 0.383 µg/mL

B4: γ59κ18 (antibody, V domains shown)
VH: QIHLVQSGTEVKKPGSSVTVSCKAYGVNTFGLYAVNWVRQAPGQGLEYIGQIWRWKSSASHHFRGRVLISAVDLTGSSPPISSLEIKNVTSDDTAVYFCTTTSTYDEWSDLHHDGVMAFSSWGQGTLISVSA
VL: DIQMTQSPSTLSASVGDTVRISCRASQSITGGWLAWYHQRPGKAPRLLIYRGSRLLGGVPSRFSGSAAGADFTLTIANLQAEDFGTFYCQQYDTYPGTFGQGTKVEVKR
neutralization IC50 [1]: > 15 µg/mL
neutralization IC50 [2]: > 15 µg/mL
neutralization IC50 [3]: 1.23 µg/mL
neutralization IC50 [4]: 25 µg/mL
neutralization IC50 [5]: > 15 µg/mL
neutralization IC50 [6]: > 15 µg/mL
neutralization IC50 [7]: > 15 µg/mL
neutralization IC50 [8]: > 15 µg/mL
neutralization IC50 [9]: > 15 µg/mL
neutralization IC50 [10]: > 15 µg/mL
neutralization IC50 [11]: > 15 µg/mL
neutralization IC50 [12]: 11.7 µg/mL
neutralization IC50 [13]: 7.71 µg/mL
neutralization IC50 [14]: > 15 µg/mL
neutralization IC50 [15]: 4.07 µg/mL
neutralization IC50 [16]: > 15 µg/mL

B5: γ52κ61 (antibody, V domains shown)
VH: QIHLVQSGTEVKKPGSSVTVSCKAYGVNTFGLYAVNWVRQAPGQSLEYIGQIWRWKSSASHHFRGRVLISAVDLTGSSPPISSLEIKNLTSDDTAVYFCTTTSTYDRWSGLHHDGVMAFSSWGQGTLISVSA
VL: DIQMTQSPSTLSASIGDTVRISCRASQSITGNWVAWYHQRPGKAPRLLIYRGAALLGGVPSRFSGSAAGTDFTLTIGNLQAEDFGTFYCQQYDTYPGTFGQGTKVEVKR
neutralization IC50 [1]: 0.078 µg/mL
neutralization IC50 [2]: > 15 µg/mL
neutralization IC50 [3]: 0.115 µg/mL
neutralization IC50 [4]: 0.273 µg/mL
neutralization IC50 [5]: 0.516 µg/mL
neutralization IC50 [6]: > 15 µg/mL
neutralization IC50 [7]: 0.242 µg/mL
neutralization IC50 [8]: > 15 µg/mL
neutralization IC50 [9]: 0.681 µg/mL
neutralization IC50 [10]: > 15 µg/mL
neutralization IC50 [11]: 8.44 µg/mL
neutralization IC50 [12]: 1.64 µg/mL
neutralization IC50 [13]: 0.408 µg/mL
neutralization IC50 [14]: 7.28 µg/mL
neutralization IC50 [15]: 2.57 µg/mL
neutralization IC50 [16]: 0.182 µg/mL

B6: γ15κ61 (antibody, V domains shown)
VH: QIHLVQSGTEVKKPGSSVTVSCKAYGVNTFGLYAVNWVRQAPGQSLEYIGQIWRWKSSASHHFRGRVIISAVDLTGSSPPISSLEIKNLTSDDTAVYFCTTASTYDKWSGLHHDGVMAFSSWGQGTLISVSA
VL: DIQMTQSPSTLSASIGDTVRISCRASQSITGNWVAWYHQRPGKAPRLLIYRGAALLGGVPSRFSGSAAGTDFTLTIGNLQAEDFGTFYCQQYDTYPGTFGQGTKVEVKR
neutralization IC50 [1]: 1.23 µg/mL
neutralization IC50 [2]: > 15 µg/mL
neutralization IC50 [3]: 2.03 µg/mL
neutralization IC50 [4]: 4.66 µg/mL
neutralization IC50 [5]: 5.23 µg/mL
neutralization IC50 [6]: > 15 µg/mL
neutralization IC50 [7]: > 15 µg/mL
neutralization IC50 [8]: > 15 µg/mL
neutralization IC50 [9]: > 15 µg/mL
neutralization IC50 [10]: > 15 µg/mL
neutralization IC50 [11]: > 15 µg/mL
neutralization IC50 [12]: 6.55 µg/mL
neutralization IC50 [13]: 3.44 µg/mL
neutralization IC50 [14]: > 15 µg/mL
neutralization IC50 [15]: 10.9 µg/mL
neutralization IC50 [16]: 1.21 µg/mL

B7: γ20κ19 (antibody, V domains shown)
VH: QIHLVQSGTEVKKPGSSVAVSCKAYGVNTFGLYAVNWVRQAPGQSLEYIGQIWRWKSSASHDFRGRVIISAVDLTGSSPPISSLEIKNLTSDDTAVYFCTATSTPDYWSGLHHDGVMAFSSWGQGTLISVSA
VL: DIQMTQSPSTLSASVGDTVRISCRASQSITGGWLAWYHQRPGKAPRLLIYRGSRLLGGVPSRFSGSAAGTGFTLTIANLQAEDFGTFYCQQYDTYPGTFGQGTKVEVKR
neutralization IC50 [1]: > 15 µg/mL
neutralization IC50 [2]: > 15 µg/mL
neutralization IC50 [3]: > 15 µg/mL
neutralization IC50 [4]: > 15 µg/mL
neutralization IC50 [5]: > 15 µg/mL
neutralization IC50 [6]: > 15 µg/mL
neutralization IC50 [7]: > 15 µg/mL
neutralization IC50 [8]: > 15 µg/mL
neutralization IC50 [9]: > 15 µg/mL
neutralization IC50 [10]: > 15 µg/mL
neutralization IC50 [11]: > 15 µg/mL
neutralization IC50 [12]: > 15 µg/mL
neutralization IC50 [13]: > 15 µg/mL
neutralization IC50 [14]: > 15 µg/mL
neutralization IC50 [15]: 2.99 µg/mL
neutralization IC50 [16]: > 15 µg/mL

B8: γ52κ18 (antibody, V domains shown)
VH: QIHLVQSGTEVKKPGSSVTVSCKAYGVNTFGLYAVNWVRQAPGQSLEYIGQIWRWKSSASHHFRGRVLISAVDLTGSSPPISSLEIKNLTSDDTAVYFCTTTSTYDRWSGLHHDGVMAFSSWGQGTLISVSA
VL: DIQMTQSPSTLSASVGDTVRISCRASQSITGGWLAWYHQRPGKAPRLLIYRGSRLLGGVPSRFSGSAAGADFTLTIANLQAEDFGTFYCQQYDTYPGTFGQGTKVEVKR
neutralization IC50 [1]: 0.081 µg/mL
neutralization IC50 [2]: > 15 µg/mL
neutralization IC50 [3]: 2.13 µg/mL
neutralization IC50 [4]: 0.116 µg/mL
neutralization IC50 [5]: 0.284 µg/mL
neutralization IC50 [6]: > 15 µg/mL
neutralization IC50 [7]: 0.464 µg/mL
neutralization IC50 [8]: > 15 µg/mL
neutralization IC50 [9]: > 15 µg/mL
neutralization IC50 [10]: > 15 µg/mL
neutralization IC50 [11]: > 15 µg/mL
neutralization IC50 [12]: 1.35 µg/mL
neutralization IC50 [13]: 0.265 µg/mL
neutralization IC50 [14]: > 15 µg/mL
neutralization IC50 [15]: 1.57 µg/mL
neutralization IC50 [16]: 0.129 µg/mL

B9: γ59κ61 (antibody, V domains shown)
VH: QIHLVQSGTEVKKPGSSVTVSCKAYGVNTFGLYAVNWVRQAPGQGLEYIGQIWRWKSSASHHFRGRVLISAVDLTGSSPPISSLEIKNVTSDDTAVYFCTTTSTYDEWSDLHHDGVMAFSSWGQGTLISVSA
VL: DIQMTQSPSTLSASIGDTVRISCRASQSITGNWVAWYHQRPGKAPRLLIYRGAALLGGVPSRFSGSAAGTDFTLTIGNLQAEDFGTFYCQQYDTYPGTFGQGTKVEVKR
neutralization IC50 [1]: > 15 µg/mL
neutralization IC50 [2]: > 15 µg/mL
neutralization IC50 [3]: 1.33 µg/mL
neutralization IC50 [4]: 1.4 µg/mL
neutralization IC50 [5]: > 15 µg/mL
neutralization IC50 [6]: > 15 µg/mL
neutralization IC50 [7]: > 15 µg/mL
neutralization IC50 [8]: > 15 µg/mL
neutralization IC50 [9]: > 15 µg/mL
neutralization IC50 [10]: > 15 µg/mL
neutralization IC50 [11]: 13.3 µg/mL
neutralization IC50 [12]: 7.46 µg/mL
neutralization IC50 [13]: 4.33 µg/mL
neutralization IC50 [14]: > 15 µg/mL
neutralization IC50 [15]: 4.01 µg/mL
neutralization IC50 [16]: > 15 µg/mL
